Where a chain is given by its changes, count along the chain named.

One assay has as its target T1, cynomolgus monkey IL-12 (cynomolgus monkey).
T1 chain 1: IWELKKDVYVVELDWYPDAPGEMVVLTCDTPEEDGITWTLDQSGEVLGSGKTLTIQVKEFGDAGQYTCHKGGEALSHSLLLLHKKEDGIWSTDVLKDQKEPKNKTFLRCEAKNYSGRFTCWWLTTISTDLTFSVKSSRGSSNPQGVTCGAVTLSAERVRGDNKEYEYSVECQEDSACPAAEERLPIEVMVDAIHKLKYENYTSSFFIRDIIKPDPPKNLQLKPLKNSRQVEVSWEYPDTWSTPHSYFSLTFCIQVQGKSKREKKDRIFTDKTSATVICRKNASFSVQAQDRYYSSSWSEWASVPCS
T1 chain 2: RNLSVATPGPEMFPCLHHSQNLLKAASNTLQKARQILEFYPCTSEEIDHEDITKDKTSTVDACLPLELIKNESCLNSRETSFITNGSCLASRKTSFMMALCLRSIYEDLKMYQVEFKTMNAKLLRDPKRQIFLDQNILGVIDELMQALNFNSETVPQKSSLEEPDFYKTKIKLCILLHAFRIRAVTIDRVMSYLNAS
The experiment in a line: cell-based or functional assay.

The target in assay [1] is T2, recombinant human TL1A (human, UniProt O95150 71-251).
T2 chain: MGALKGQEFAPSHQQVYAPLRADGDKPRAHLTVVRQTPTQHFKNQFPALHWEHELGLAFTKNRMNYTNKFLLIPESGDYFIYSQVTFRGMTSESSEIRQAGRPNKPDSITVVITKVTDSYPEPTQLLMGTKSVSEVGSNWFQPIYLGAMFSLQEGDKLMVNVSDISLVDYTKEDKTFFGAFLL
The experiment in a line: cell-based or functional assay.

Another assay addresses T3, human IL-23 (human, UniProt P29460 23-328; Q9NPF7 20-189).
T3 sequence 1: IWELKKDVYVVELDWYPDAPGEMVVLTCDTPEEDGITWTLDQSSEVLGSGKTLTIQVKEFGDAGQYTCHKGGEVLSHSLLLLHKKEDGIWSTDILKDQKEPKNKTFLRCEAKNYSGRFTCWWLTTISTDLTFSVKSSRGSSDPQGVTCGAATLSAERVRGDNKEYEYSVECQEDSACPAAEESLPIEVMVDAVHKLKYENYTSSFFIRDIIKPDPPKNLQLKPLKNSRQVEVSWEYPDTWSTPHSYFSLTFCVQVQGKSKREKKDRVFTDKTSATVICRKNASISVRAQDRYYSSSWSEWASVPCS
T3 sequence 2: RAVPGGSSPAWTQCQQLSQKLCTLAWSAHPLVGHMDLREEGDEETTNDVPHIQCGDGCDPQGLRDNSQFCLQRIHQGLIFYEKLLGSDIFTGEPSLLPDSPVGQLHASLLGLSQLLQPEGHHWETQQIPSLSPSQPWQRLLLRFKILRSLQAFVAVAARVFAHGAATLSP
The experiment in a line: cell-based or functional assay.

In the next assay the target is T4, cynomolgus monkey IL-23 (cynomolgus monkey, limits assumed).
T4 chain 1: T1 chain 1
T4 chain 2: T3 sequence 2 with T12A, H75R, L131P
The experiment in a line: cell-based or functional assay.

A further assay addresses T5, human IL-12 (human, UniProt P29460 23-328; P29459 23-219).
T5 sequence 1: T3 sequence 1
T5 sequence 2: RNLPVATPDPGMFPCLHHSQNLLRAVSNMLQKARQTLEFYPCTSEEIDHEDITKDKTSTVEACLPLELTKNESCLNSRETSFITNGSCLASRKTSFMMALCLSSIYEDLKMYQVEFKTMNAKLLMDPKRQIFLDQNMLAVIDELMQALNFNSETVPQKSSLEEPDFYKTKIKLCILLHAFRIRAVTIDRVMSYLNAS
The experiment in a line: cell-based or functional assay.

The target of assay [2] is T6, recombinant cynomolgus monkey TL1A (cynomolgus monkey, UniProt O95150 72-251 (human entry)).
T6 chain: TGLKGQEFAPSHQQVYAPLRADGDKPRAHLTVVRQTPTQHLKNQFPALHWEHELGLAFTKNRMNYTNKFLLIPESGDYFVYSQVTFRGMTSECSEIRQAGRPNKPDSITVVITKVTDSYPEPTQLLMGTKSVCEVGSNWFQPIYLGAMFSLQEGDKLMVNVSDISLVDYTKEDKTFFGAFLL
The experiment in a line: cell-based or functional assay.

Another assay concerns the target T7, recombinant mouse TL1A (mouse, UniProt Q5UBV8 75-252).
T7 chain: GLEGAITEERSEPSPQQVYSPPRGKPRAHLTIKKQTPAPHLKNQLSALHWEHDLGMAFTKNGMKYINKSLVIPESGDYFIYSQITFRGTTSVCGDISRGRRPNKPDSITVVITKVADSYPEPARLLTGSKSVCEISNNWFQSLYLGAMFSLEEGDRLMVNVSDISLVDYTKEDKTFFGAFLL
The experiment in a line: SPR, Biacore T200, 37 C; biotinylated TL1A captured on Biotin CAPture chip, antibody injected. On the procedure:
(§1) In order to determine binding to TL1A, kinetic assays were conducted at 37° C. using a collection rate of 10 Hz on a Biacore™ T200 instrument (GE Healthcare). […] For the analysis of the p40 binding arm, kinetic assays were conducted at 37° C. using a collection rate of 10 Hz on a Biacore™ 8 K+ instrument (GE Healthcare).

The target in assay [3] is T8, recombinant human TL1A (human, UniProt O95150 71-251).
T8 construct: TL1A is described as a homotrimer; Biotinylated for SPR capture; also called TNFSF15
T8 chain: T2 chain
Described as above. On the procedure:
as §1

The target of assay [4] is T9, recombinant cynomolgus monkey TL1A (cynomolgus monkey, UniProt O95150 72-251 (human entry)).
T9 construct: also called Cyno TL1A
T9 chain: T6 chain
The assay is described as above. On the procedure:
as §1

Another assay has as its target T10, recombinant rat TL1A (rat, UniProt Q8K3Y7 76-252).
T10 sequence: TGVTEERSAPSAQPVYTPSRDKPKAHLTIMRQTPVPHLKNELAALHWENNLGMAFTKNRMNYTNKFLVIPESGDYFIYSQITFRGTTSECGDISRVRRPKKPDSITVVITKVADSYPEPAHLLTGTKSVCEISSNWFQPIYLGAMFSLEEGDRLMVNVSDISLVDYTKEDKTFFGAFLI
The assay is described as above. As to the method: as §1

B1: p40TL1A-0033 (bispecific antibody, human IgG1, kappa)
chain 1: not shown
chain 2: QVQLVQSGAEVKKPGASVKVSCKASGYDYTYYGISWVRQAPGQGLEWMGWISTYNTGTHYAPSLQGRVTMTTDTSTSTAYMELRSLRSDDTAVYYCARESYYGSGAFRGGMDVWGQGTTVTVSSASTKGPSVFPLAPSSKSTSGGTAALGCLVKDYFPEPVTVSWNSGALTSGVHTFPAVLQSSGLYSLSSVVTVPSSSLGTQTYICNVNHKPSNTKVDKKVEPKSC
heavy: EVQLVQSGAEVKKPGESLKISCKGSGYSFTTYWLGWVRQMPGKGLDWIGIMSPVDSDIRYSPSFQGQVTMSVDKSITTAYLQWNSLKASDTAMYYCARRRPGQGYFDFWGQGTLVTVSSASTKGPSVFPLAPSSKSTSGGTAALGCLVKDYFPEPVTVSWNSGALTSGVHTFPAVLQSSGLYSLSSVVTVPSSSLGTQTYICNVNHKPSNTKVDKKVEPKSCDKTHTCPPCPAPEAAGAPSVFLFPPKPKDTLMISRTPEVTCVVVDVSHEDPEVKFNWYVDGVEVHNAKTKPREEQYNSTYRVVSVLTVLHQDWLNGKEYKCKVSNKALPAPIEKTISKAKGQPREPQVCTLPPSREEMTKNQVSLWCLVKGFYPSDIAVEWESNGQPENNYKTTPPVLDSDGSFFLYSKLTVDKSRWQQGNVFSCSVLHEALHSHYTQKSLSLSPGK
light: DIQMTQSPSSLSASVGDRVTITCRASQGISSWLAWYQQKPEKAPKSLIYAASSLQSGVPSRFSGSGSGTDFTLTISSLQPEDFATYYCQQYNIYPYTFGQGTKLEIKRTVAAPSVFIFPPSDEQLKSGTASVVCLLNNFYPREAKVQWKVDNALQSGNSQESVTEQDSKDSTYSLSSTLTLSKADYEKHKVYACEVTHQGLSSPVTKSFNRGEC
notes: KiH modified-Fd bispecific: TL1A VL-CL-Fc (hole), TL1A mFd, p40 HC (knob), p40 LC; LS
B1: in the assay with cynomolgus monkey IL-12, the “KIT-225 STAT4 phosphorylation, fold-change of potency across species (human against cynomolgus monkey IL-12)” value worked out at 1.2 fold. In addition, the “NF-κB assay in TF-1 reporter cells, neutralization relative to TL1A-0002” value with recombinant human TL1A [1] is not above 2 fold. Also, in the assay with human IL-23, the “STAT3 activation in human whole blood, fold decreased potency (IC50) compared to p40-0003” value was approximately 2.9 fold. In addition, in the assay with cynomolgus monkey IL-23, the “KIT-225 STAT3 phosphorylation, fold-change of potency across species (human against cynomolgus monkey IL-23)” value was found to be 1.2 fold. Moreover, the “STAT4 activation in human whole blood, fold decreased potency (IC50) compared to p40-0003” value with human IL-12 was approximately 2.9 fold. Moreover, the “NF-κB assay in TF-1 reporter cells, fold-change of neutralization across species (human against cynomolgus monkey TL1A)” value in assay [2] was 1.7 fold.

B2: p40TL1A-0033 bispecific antibody (bispecific antibody, human IgG1, kappa)
heavy: B1 heavy
light: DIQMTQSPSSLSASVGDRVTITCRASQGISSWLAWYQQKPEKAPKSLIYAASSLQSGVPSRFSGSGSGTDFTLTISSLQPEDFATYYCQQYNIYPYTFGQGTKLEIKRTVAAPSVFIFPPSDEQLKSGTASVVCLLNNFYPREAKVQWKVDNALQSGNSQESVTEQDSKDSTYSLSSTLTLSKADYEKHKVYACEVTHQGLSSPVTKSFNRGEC
chain 1: not shown
chain 2: B1 chain 2
notes: Single cell KiH, modified Fd format; IgG1 effector-function-minimized Fc with LS mutations
B2: the Kd worked out at 288 nM in the assay with recombinant mouse TL1A, 0.34 nM in the assay with recombinant human TL1A [3] and 1.09 nM in assay [4]. The koff turned out to be 0.00761 s⁻¹ in the assay with recombinant mouse TL1A, 5.05e-05 s⁻¹ with recombinant human TL1A [3], 0.000127 s⁻¹ in assay [4] and 0.0562 s⁻¹ in the assay with recombinant rat TL1A. The kon in the assay with recombinant mouse TL1A turned out to be 26700 M⁻¹ s⁻¹; with recombinant human TL1A [3], 150000 M⁻¹ s⁻¹; in [4], 117000 M⁻¹ s⁻¹; with recombinant rat TL1A it was 52400 M⁻¹ s⁻¹.

These data come from patent US20240059799A1 (Pfizer, published 2024).
